From patent US20190008977A1 (ASCENDIS PHARMA GROWTH DISORDERS A S, published 2019)
Bridge positions count the residues as written; N and C are the ends. Side chains are listed from the residue outwards. Ends that are not written are not given here. * marks the point of attachment. Hexanoyl(6-maleimido) = O=C1C=CC(=O)N1CCCCCC(=O)*; reversible prodrug linker = not defined here

T1: NPR-B expressed endogenously on NIH-3T3 cells (Murine Embryo Fibroblast cell line) (mouse (endogenous in the murine NIH-3T3 …, UniProt Q6VVW5 17-1047))
T1 sequence (looked up): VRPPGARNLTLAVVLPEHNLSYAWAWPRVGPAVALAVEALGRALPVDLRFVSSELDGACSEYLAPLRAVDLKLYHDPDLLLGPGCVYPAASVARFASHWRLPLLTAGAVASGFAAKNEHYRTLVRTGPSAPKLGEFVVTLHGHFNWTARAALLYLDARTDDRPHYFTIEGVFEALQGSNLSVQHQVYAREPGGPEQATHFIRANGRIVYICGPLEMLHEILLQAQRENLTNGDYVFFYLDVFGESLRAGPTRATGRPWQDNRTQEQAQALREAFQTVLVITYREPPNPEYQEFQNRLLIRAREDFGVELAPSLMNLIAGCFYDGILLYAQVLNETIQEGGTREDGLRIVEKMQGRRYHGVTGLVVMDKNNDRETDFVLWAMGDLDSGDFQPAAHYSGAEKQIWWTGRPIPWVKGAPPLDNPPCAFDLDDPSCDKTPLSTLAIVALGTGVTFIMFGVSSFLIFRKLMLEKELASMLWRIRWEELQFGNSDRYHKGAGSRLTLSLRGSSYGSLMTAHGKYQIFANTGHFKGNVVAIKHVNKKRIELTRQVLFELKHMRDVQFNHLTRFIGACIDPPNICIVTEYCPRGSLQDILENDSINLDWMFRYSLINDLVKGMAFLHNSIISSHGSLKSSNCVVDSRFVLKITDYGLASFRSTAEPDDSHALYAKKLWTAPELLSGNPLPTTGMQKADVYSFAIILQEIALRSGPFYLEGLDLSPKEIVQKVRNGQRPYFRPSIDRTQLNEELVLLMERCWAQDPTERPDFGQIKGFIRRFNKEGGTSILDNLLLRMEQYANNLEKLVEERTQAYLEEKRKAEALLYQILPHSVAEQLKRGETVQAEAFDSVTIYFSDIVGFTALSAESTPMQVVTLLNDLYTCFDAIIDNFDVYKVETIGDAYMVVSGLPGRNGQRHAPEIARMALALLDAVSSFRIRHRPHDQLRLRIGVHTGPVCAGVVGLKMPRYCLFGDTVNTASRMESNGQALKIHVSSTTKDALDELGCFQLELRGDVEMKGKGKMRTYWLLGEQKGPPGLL

T2: permanent Lys26 CNP-38 PEG4x10 kDa conjugate 12g
T2 chain: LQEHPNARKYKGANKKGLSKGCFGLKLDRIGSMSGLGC

T3: permanent N-terminal CNP-34 PEG 5 kDa conjugate 14e
T3 chain: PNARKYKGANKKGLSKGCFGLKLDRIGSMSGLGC

T4: permanent N-terminal CNP-38 PEG 5 kDa conjugate 15e
T4 chain: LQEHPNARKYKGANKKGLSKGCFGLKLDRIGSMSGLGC

B1: reversible Lys26 CNP-38 PEG2x20 kDa conjugate 10f (peptide)
peptide: LQEHPNARKYKGANKKGLSKGCFGLK([reversible prodrug linker-branched PEG 2x20 kDa])LDRIGSMSGLGC
modifications: disulfide 22-38; reading uncertain
B2: reversible Lys26 CNP-38 PEG4x10 kDa conjugate 11i (peptide)
peptide: LQEHPNARKYKGANKKGLSKGCFGLK([reversible prodrug linker-branched PEG 4x10 kDa])LDRIGSMSGLGC
modifications: disulfide 22-38; reading uncertain
B3: permanent N-terminal CNP-38 PEG 5 kDa conjugate 15e (peptide)
peptide: {PEG 5 kDa-Hexanoyl(6-maleimido)}-LQEHPNARKYKGANKKGLSKGCFGLKLDRIGSMSGLGC
modifications: disulfide 22-38
B4: permanent Lys26 CNP-38 PEG4x10 kDa conjugate 12g (peptide)
peptide: LQEHPNARKYKGANKKGLSKGCFGLK(branched PEG 4x10 kDa)LDRIGSMSGLGC
modifications: disulfide 22-38
B5: recombinant human Neutral Endopeptidase (NEP) (protein)
chain: YDDGICKSSDCIKSAARLIQNMDATTEPCTDFFKYACGGWLKRNVIPETSSRYGNFDILRDELEVVLKDVLQEPKTEDIVAVQKAKALYRSCINESAIDSRGGEPLLKLLPDIYGWPVATENWEQKYGASWTAEKAIAQLNSKYGKKVLINLFVGTDDKNSVNHVIHIDQPRLGLPSRDYYECTGIYKEACTAYVDFMISVARLIRQEERLPIDENQLALEMNKVMELEKEIANATAKPEDRNDPMLLYNKMTLAQIQNNFSLEINGKPFSWLNFTNEIMSTVNISITNEEDVVVYAPEYLTKLKPILTKYSARDLQNLMSWRFIMDLVSSLSRTYKESRNAFRKALYGTTSETATWRRCANYVNGNMENAVGRLYVEAAFAGESKHVVEDLIAQIREVFIQTLDDLTWMDAETKKRAEEKALAIKERIGYPDDIVSNDNKLNNEYLELNYKEDEYFENIIQNLKFSQSKQLKKLREKVDKDEWISGAAVVNAFYSSGRNQIVFPAGILQPPFFSAQQSNSLNYGGIGMVIGHEITHGFDDNGRNFNKDGDLVDWWTQQSASNFKEQSQCMVYQYGNFSWDLAGGQHLNGINTLGENIADNGGLGQAYRAYQNYIKKNGEEKLLPGLDLNHKQLFFLNFAQVWCGTYRPEYAVNSIKTDVHSPGNFRIIGTLQNSAEFSEAFHCRKNSYMNPEKKCRVW
B6: permanent Lys26 CNP-38 PEG 5 kDa conjugate 19e (peptide)
peptide: LQEHPNARKYKGANKKGLSKGCFGLKLDRIGSMSGLGC
modifications: 5 kDa PEG stably attached through a maleimidohexanoyl group at the side chain of Lys26 (ring lysine); disulfide Cys22-Cys38
B7: Released CNP-38 (isolated by RP-HPLC after 7 d incubation of 11i under physiological conditions) (peptide)
peptide: LQEHPNARKYKGANKKGLSKGCFGLKLDRIGSMSGLGC
modifications: disulfide 22-38

Key:
[1] = biological target: T1, NPR-B expressed endogenously on NIH-3T3 …; experiment: cell-based or functional assay
[2] = biological target: T2, permanent Lys26 CNP-38 PEG4x10 kDa …
[3] = biological target: T3, permanent N-terminal CNP-34 PEG 5 kDa …
[4] = biological target: T4, permanent N-terminal CNP-38 PEG 5 kDa …
[5] = biological target: T1, NPR-B expressed endogenously on NIH-3T3 …; experiment: cell-based or functional assay; remark: listed apart in the source

| Binder | EC50 compound/EC50 CNP-38 (cGMP stimulation in NIH-3T3 cells, residual NPR-B activity) [1] | other results |
| --- | --- | --- |
| B1 | > 100 ratio |  |
| B2 | > 100 ratio |  |
| B3 | > 5 ratio |  |
| B4 | > 100 ratio |  |
| B5 |  | half life norm. [h] (in vitro NEP cleavage assay) [2]: Almost no proteolysis after 4 days.; half life norm. [h] (in vitro NEP cleavage assay) [3]: Almost no proteolysis after 4 days.; half life norm. [h] (in vitro NEP cleavage assay) [4]: Almost no proteolysis after 4 days. |
| B6 | > 100 ratio |  |
| B7 |  | EC50 compound/EC50 CNP-38 (cGMP stimulation in NIH-3T3 cells) [5]: 1 ratio |
